Consider 22 sequences from the Immune Epitope Database (IEDB).

The assay concerns the target HLA-A*02:01. Briefly: IEDB peptide-MHC binding, purified MHC/competitive/radioactivity; filed as Kd, often an IC50 or EC50 that approximates it; ≥ and ≤ were set here for values at or beyond the usual limits of such assays.
Where [1] appears, read: source organism: Hepatitis B virus subtype ayw.

What is called Kd is the concentration at which binding is half-saturated. Take ALSRKVAELV: where the note is “source organism: Homo sapiens”, the Kd is at least 50 µM.
Regarding CLTFGRETV, under setting [1], the Kd is at least 50 µM.
For the sequence DLESEFQAAL, the Kd (source organism: Homo sapiens) was at least 50 µM.
Same read-out and setting: in the case of DLFGIWSKV it was at least 25 µM.
Turning to DLVVSYVNV, the Kd (source organism: Hepatitis B virus) was at least 50 µM.
In the case of ELHPDKWTV, the Kd (source organism: HIV-1 M:B_MN) is at least 50 µM.
With ELRHYSDSV, the Kd (source organism: human papillomavirus 18) is at least 50 µM.
Regarding FLCILLLCLI, the Kd (source organism: Hepatitis B virus adw/Indonesia/PIDW420) is 2.38 µM.
Regarding GLRDLAVAV, the equilibrium dissociation constant (Kd) (source organism: Hepatitis C virus (isolate Taiwan)) turned out to be 1.47 µM.
Consider HLEGKVILV, for which the Kd (source organism: HIV-1 M:B_MN) is 8.33 µM.
As to HLSLRGLPV, the Kd under setting [1] turned out to be 12.5 µM.
Turning to ILCWGELMTL, the Kd under setting [1] was determined as 0.026 µM.
In the case of KLPGLLSRDL, the Kd (source organism: Homo sapiens) was at least 50 µM.
Take LLYQTFGRKL: under setting [1], the Kd is at least 50 µM.
Same read-out and setting: under NMGLKFRQL stands at least 50 µM; under NMGLKFRQLL, at least 50 µM.
Take PLERFAELV: the Kd (source organism: Homo sapiens) was at least 50 µM.
For the sequence PLSYQHFRRL, the Kd under setting [1] was at least 50 µM.
PLTSIISAV: where the note is “source organism: Homo sapiens”, the Kd was 3.33 µM.
As for RLCVQSTHV, the Kd (source organism: Human papillomavirus 16) amounted to 16.7 µM.
As for RMRGTFSAPL, the Kd under setting [1] came out at 0.046 µM.
As for SLQLVFGIEL, the Kd (source organism: Homo sapiens) worked out at 0.102 µM.
